Measurements reported in PMC13189624, “MORC2 mediates transcriptional regulation through liquid-liquid phase separation” (eLife, 2026).
Numbering of substitutions follows the chain as printed. Numbers in names are those of the source.

B1: selenomethionine MORC2 CC3 domain (residues 901-1003), as crystallised (domain or fragment, human, UniProt Q9Y6X9 901-1003, looked up)
chain: LSTNHETIDLLVQILRNCLRYFLPPSFPISKKQLSAMNSDELISFPLKEYFKQYEVGLQNLCNSYQSRADSRAKASEESLRTSERKLRETEEKLQKLRTNIVA
modifications: selenomethionine (SeMet) in place of methionine
notes: MORC2, human, UniProt Q9Y6X9, residues 901-1003; The methods say 'MORC2 CC3 fused with a GPGS linker'; also called CC3 dimer; source: E. coli B834 in M9 medium with selenomethionine, purified (SEC, Superdex 75)
B2: full-length human MORC2 (MORC2FL, residues 1-1032) (natural protein, UniProt Q9Y6X9 1-1032, looked up)
chain: MAFTNYSSLNRAQLTFEYLHTNSTTHEFLFGALAELVDNARDADATRIDIYAERREDLRGGFMLCFLDDGAGMDPSDAASVIQFGKSAKRTPESTQIGQYGNGLKSGSMRIGKDFILFTKKEDTMTCLFLSRTFHEEEGIDEVIVPLPTWNARTREPVTDNVEKFAIETELIYKYSPFRTEEEVMTQFMKIPGDSGTLVIIFNLKLMDNGEPELDIISNPRDIQMAETSPEGTKPERRSFRAYAAVLYIDPRMRIFIHGHKVQTKRLSCCLYKPRMYKYTSSRFKTRAEQEVKKAEHVARIAEEKAREAESKARTLEVRLGGDLTRDSRVMLRQVQNRAITLRREADVKKRIKEAKQRALKEPKELNFVFGVNIEHRDLDGMFIYNCSRLIKMYEKVGPQLEGGMACGGVVGVVDVPYLVLEPTHNKQDFADAKEYRHLLRAMGEHLAQYWKDIAIAQRGIIKFWDEFGYLSANWNQPPSSELRYKRRRAMEIPTTIQCDLCLKWRTLPFQLSSVEKDYPDTWVCSMNPDPEQDRCEASEQKQKVPLGTFRKDMKTQEEKQKQLTEKIRQQQEKLEALQKTTPIRSQADLKKLPLEVTTRPSTEEPVRRPQRPRSPPLPAVIRNAPSRPPSLPTPRPASQPRKAPVISSTPKLPALAAREEASTSRLLQPPEAPRKPANTLVKTASRPAPLVQQLSPSLLPNSKSPREVPSPKVIKTPVVKKTESPIKLSPATPSRKRSVAVSDEEEVEEEAERRKERCKRGRFVVKEEKKDSNELSDSAGEEDSADLKRAQKDKGLHVEVRVNREWYTGRVTAVEVGKHVVRWKVKFDYVPTDTTPRDRWVEKGSEDVRLMKPPSPEHQSLDTQQEGGEEEVGPVAQQAIAVAEPSTSECLRIEPDTTALSTNHETIDLLVQILRNCLRYFLPPSFPISKKQLSAMNSDELISFPLKEYFKQYEVGLQNLCNSYQSRADSRAKASEESLRTSERKLRETEEKLQKLRTNIVALLQKVQEDIDINTDDELDAYIEDLITKGD
notes: MORC2, human, UniProt Q9Y6X9, residues 1-1032; cDNA amplified from a HeLa cDNA library; The plasmid is called MORC2-6xHis; Construct details are in Supplementary file 2; source: HEK293F, transiently transfected, purified (Ni-NTA, Superose 6 gel filtration), nucleic acid-free
B3: Trx-tagged MORC2 901-1032 Y921A (domain or fragment, human, UniProt Q9Y6X9 901-1032, looked up)
chain: LSTNHETIDLLVQILRNCLRAFLPPSFPISKKQLSAMNSDELISFPLKEYFKQYEVGLQNLCNSYQSRADSRAKASEESLRTSERKLRETEEKLQKLRTNIVALLQKVQEDIDINTDDELDAYIEDLITKGD
notes: MORC2, human, UniProt Q9Y6X9, residues 901-1032 with Y921A; the same legend also prints residue 921 as F921; source: E. coli, purified
B4: Trx-tagged MORC2 901-1032 F951Q (domain or fragment, human, UniProt Q9Y6X9 901-1032, looked up)
chain: B3 chain with A21Y, F51Q
notes: MORC2, human, UniProt Q9Y6X9, residues 901-1032 with F951Q; source: E. coli, purified
B5: Trx-tagged MORC2 901-1032 Y954A (domain or fragment, human, UniProt Q9Y6X9 901-1032, looked up)
chain: B3 chain with A21Y, Y54A
notes: MORC2, human, UniProt Q9Y6X9, residues 901-1032 with Y954A; source: E. coli, purified
B6: Trx-tagged MORC2 901-1032 L958Q (domain or fragment, human, UniProt Q9Y6X9 901-1032, looked up)
chain: B3 chain with A21Y, L58Q
notes: MORC2, human, UniProt Q9Y6X9, residues 901-1032 with L958Q; source: E. coli, purified
B7: MORC2 CTDΔCW (residues 537-1032) (domain or fragment, human, UniProt Q9Y6X9 537-1032, looked up)
chain: EASEQKQKVPLGTFRKDMKTQEEKQKQLTEKIRQQQEKLEALQKTTPIRSQADLKKLPLEVTTRPSTEEPVRRPQRPRSPPLPAVIRNAPSRPPSLPTPRPASQPRKAPVISSTPKLPALAAREEASTSRLLQPPEAPRKPANTLVKTASRPAPLVQQLSPSLLPNSKSPREVPSPKVIKTPVVKKTESPIKLSPATPSRKRSVAVSDEEEVEEEAERRKERCKRGRFVVKEEKKDSNELSDSAGEEDSADLKRAQKDKGLHVEVRVNREWYTGRVTAVEVGKHVVRWKVKFDYVPTDTTPRDRWVEKGSEDVRLMKPPSPEHQSLDTQQEGGEEEVGPVAQQAIAVAEPSTSECLRIEPDTTALSTNHETIDLLVQILRNCLRYFLPPSFPISKKQLSAMNSDELISFPLKEYFKQYEVGLQNLCNSYQSRADSRAKASEESLRTSERKLRETEEKLQKLRTNIVALLQKVQEDIDINTDDELDAYIEDLITKGD
notes: MORC2, human, UniProt Q9Y6X9, residues 537-1032; Bacterial constructs were made with MBP or Trx fusion proteins; Which one was used here, and whether it was kept, is in Supplementary file 2; source: Escherichia coli, purified
B8: MORC2 fragment 744-1032 (domain or fragment, human, UniProt Q9Y6X9 744-1032, looked up)
chain: DEEEVEEEAERRKERCKRGRFVVKEEKKDSNELSDSAGEEDSADLKRAQKDKGLHVEVRVNREWYTGRVTAVEVGKHVVRWKVKFDYVPTDTTPRDRWVEKGSEDVRLMKPPSPEHQSLDTQQEGGEEEVGPVAQQAIAVAEPSTSECLRIEPDTTALSTNHETIDLLVQILRNCLRYFLPPSFPISKKQLSAMNSDELISFPLKEYFKQYEVGLQNLCNSYQSRADSRAKASEESLRTSERKLRETEEKLQKLRTNIVALLQKVQEDIDINTDDELDAYIEDLITKGD
notes: MORC2, human, UniProt Q9Y6X9, residues 744-1032; The expression system and tags are in Supplementary file 2
B9: Trx-901-975 (CC3 truncation) (domain or fragment, human, UniProt Q9Y6X9 901-975, looked up)
chain: LSTNHETIDLLVQILRNCLRYFLPPSFPISKKQLSAMNSDELISFPLKEYFKQYEVGLQNLCNSYQSRADSRAKA
notes: MORC2, human, UniProt Q9Y6X9, residues 901-975; The Trx tag points to the bacterial pET32m-type vector; Construct details are in Supplementary file 2; also called truncated CC3 constructs (residues 901-975); CC3 N-terminal region
B10: MORC2 CC3-IBD (residues 901-1032) (domain or fragment, human, UniProt Q9Y6X9 901-1032, looked up)
chain: B3 chain with A21Y
notes: MORC2, human, UniProt Q9Y6X9, residues 901-1032; The legend names no Trx tag on it, and it may be the same as the Trx-tagged m4; The methods say fragments carry a GPGS linker; Construct details are in Supplementary file 2; also called MORC2^901-1032
B11: MORC2 CC3 domain (residues 901-1003) (domain or fragment, human, UniProt Q9Y6X9 901-1003, looked up)
chain: B1 chain
notes: MORC2, human, UniProt Q9Y6X9, residues 901-1003; Cloned in a modified pET32m vector (Trx-tag); Used unlabelled for SEC-SLS and uniformly 15N-labelled for the NMR titration; The methods say fragments carry a GPGS linker; also called MORC2^901-1003; coiled-coil 3; source: E. coli, purified (Ni-NTA, SEC); 15N-labelled from M9 medium for NMR
B12: wild-type MORC2 901-1032 with Trx-tag (domain or fragment, human, UniProt Q9Y6X9 901-1032, looked up)
chain: B3 chain with A21Y
notes: MORC2, human, UniProt Q9Y6X9, residues 901-1032; Cloned in a modified pET32m vector with Trx-tag (14 kDa); also called WT MORC2^901-1032 (with Trx-tag); WT CC3-IBD; source: E. coli, purified (Ni-NTA, SEC)
B13: Trx-tagged MORC2 901-1032 L911Q (domain or fragment, human, UniProt Q9Y6X9 901-1032, looked up)
chain: B3 chain with L11Q, A21Y
notes: MORC2, human, UniProt Q9Y6X9, residues 901-1032 with L911Q; source: E. coli, purified
B14: Trx-tagged MORC2 901-1032 L915Q (domain or fragment, human, UniProt Q9Y6X9 901-1032, looked up)
chain: B3 chain with L15Q, A21Y
notes: MORC2, human, UniProt Q9Y6X9, residues 901-1032 with L915Q; source: E. coli, purified
B15: Trx-tagged MORC2 901-1032 F922Q (domain or fragment, human, UniProt Q9Y6X9 901-1032, looked up)
chain: B3 chain with A21Y, F22Q
notes: MORC2, human, UniProt Q9Y6X9, residues 901-1032 with F922Q; source: E. coli, purified
B16: Trx-tagged MORC2 901-1032 I908Q (domain or fragment, human, UniProt Q9Y6X9 901-1032, looked up)
chain: B3 chain with I8Q, A21Y
notes: MORC2, human, UniProt Q9Y6X9, residues 901-1032 with I908Q; source: E. coli, purified

Molecular target: the molecule itself
Test: crystal structure; SeMet CC3 (901-1003); sitting drop, 0.1 M citric acid pH 3.5, 25% w/v PEG 3350, 16 °C; 3.1 Å

Protein | binding result
B1 | binds

Molecular target: the molecule itself
Test: SEC-MALS; size-exclusion chromatography with static light scattering (miniDawn); MORC2FL at 70 μM; 50 mM Tris-HCl pH 8.0, 1000 mM NaCl, 1 mM EDTA, 1 mM DTT; no ATP; also run with 601 DNA

Protein | stoichiometry N
B2 | 2

Molecular target: the molecule itself
Test: SEC-MALS; size-exclusion chromatography with static light scattering (miniDawn); fragments at 70 μM; Superdex 200 increase or Superose 6 increase; 50 mM Tris-HCl pH 8.0, 150 mM NaCl, 1 mM EDTA, 1 mM DTT

Protein | binding result | stoichiometry N
B3 | binds | –
B4 | binds | –
B5 | binds | –
B6 | binds | –
B7 | – | 2
B8 | – | 2
B9 | – | 2
B10 | – | 2
B11 | – | 2
B12 | – | 2
B13 | binds | –
B14 | binds | –
B15 | binds | –
B16 | binds | –
